This test addresses SARS-CoV-2 S1 WT (in-house) (SARS-CoV-2, UniProt P0DTC2). The test can be described thus: SPR. (In SPR one partner is held on a chip, and binding of the other changes the refractive index at the surface.)

B1: LY-CoV555 (antibody, V domains shown)
VH: QVQLVQSGAEVKKPGSSVKVSCKASGGTFSNYAISWVRQAPGQGLEWMGRIIPILGIANYAQKFQGRVTITADKSTSTAYMELSSLRSEDTAVYYCARGYYEARHYYYYYAMDVWGQGTAVTVSS
VL: not shown
For B1, the binding result is reported as “binds”.

B2: REGN10933 (antibody, V domains shown)
VH: QVQLVESGGGLVKPGGSLRLSCAASGFTFSDYYMSWIRQAPGKGLEWVSYITYSGSTIYYADSVKGRFTISRDNAKSSLYLQMNSLRAEDTAVYYCARDRGTTMVPFDYWGQGTLVTVSS
VL: DIQMTQSPSSLSASVGDRVTITCQASQDITNYLNWYQQKPGKAPKLLIYAASNLETGVPSRFSGSGSGTDFTFTISGLQPEDIATYYCQQYDNLPLTFGGGTKVEIK
For B2, the binding result is listed as “binds”.

The values above are taken from publication doi:10.1101/2021.03.17.435802 (bioRxiv, 2021).
